According to PMC8517857, “BusR senses bipartite DNA binding motifs by a unique molecular ruler architecture” (Nucleic Acids Research, 2021):
Changes are numbered by the printed parent chain.

Legend:
[1] = molecular target: His6-RCK_C domain of S. agalactiae BusR (Leu135 to end) (Streptococcus agalactiae); assay: SAXS; isolated RCK_C domain in the absence of c-di-AMP; batch mode or SEC-SAXS, P12 beamline, PETRA III
[2] = molecular target: His6-RCK_C domain of S. agalactiae BusR (Leu135 to end) (Streptococcus agalactiae); assay: crystal structure; apo His6-RCK_C, 6 mg/mL, 0.1 M Bis-Tris pH 6.5, 18% PEG MME 5000, 20°C; 1 Å; dimer by a symmetry related copy
[3] = molecular target: selenomethionine substituted full-length BusR from Streptococcus agalactiae (Streptococcus agalactiae); assay: crystal structure; selenomethionine full-length BusR, apo, 7 mg/ml, 150 mM magnesium-acetate, 6% D+trehalose, 20°C; SAD, 2.8 Å
[4] = molecular target: BusR from Streptococcus agalactiae (full length) (Streptococcus agalactiae); assay: cryo-EM structure; BusR with c-di-AMP (100 μM) and operator DNA (pAB, 4.5 Å; pAB1, 7.1 Å), 20 mM HEPES pH 6.5, 100 mM NaCl
[5] = molecular target: BusR from Streptococcus agalactiae (full length) (Streptococcus agalactiae); assay: SEC-MALS; SEC-coupled right angle light scattering (SEC-RALS), Superdex S200 10/300 increase, 20°C, buffer SEC (30 mM NaPi pH 6.5, 200 mM NaCl, 3% glycerol); BusR alone (apo) and with c-di-AMP
[6] = molecular target: BusR from Streptococcus agalactiae (full length) (Streptococcus agalactiae); assay: SAXS; full length BusR in 20 mM HEPES pH 7.5, 200 mM NaCl, 3% glycerol; P12 beamline, PETRA III
[7] = molecular target: RCK_C domain of S. agalactiae BusR (Leu135 to end), no His6-tag (Streptococcus agalactiae); assay: crystal structure; RCK_C (no His6-tag), 4.5 mg/mL, co-crystallised with 1 mM c-di-AMP, 100 mM sodium-acetate pH 4.6, 3% PEG 4000, 20°C; 1.2 Å
BusR = molecular target: T1, BusR (Streptococcus agalactiae, UniProt K0JNC6); assay: ITC; […] Å co-crystal structure of the RCK_C domain; cryo-EM of the BusR:c-di-AMP:DNA complex; type: binding
T1 construct: gene BM110_ORF1201; full-length BusR (ITC)

BusR W159A [8] = molecular target: T2, BusR W159A (Streptococcus agalactiae DSM 16828, UniProt K0JNC6 1-213, W159A); assay: SPR; 10 uM c-di-AMP; EMSA: 100 mM KPi pH 6.5, 20 mM KCl, 30 min 20 C, 20 nM DNA, gel at 8 C; SPR: 100 mM NaPi pH 6.5, 20 mM KCl, 200 mM NaCl, 3 mM EDTA, 0.05% P20; BusR concentrations as tetramer; conditions: protein: recombinant; tags: His6-MBP removed with PreScission protease; chain copies: 4; blunt
BusR wt [9] = molecular target: T3, BusR wt (Streptococcus agalactiae DSM 16828, UniProt K0JNC6 1-213); assay: as above; conditions: protein: recombinant; tags: His6-MBP removed with PreScission protease; chain copies: 4; blunt
T3 sequence: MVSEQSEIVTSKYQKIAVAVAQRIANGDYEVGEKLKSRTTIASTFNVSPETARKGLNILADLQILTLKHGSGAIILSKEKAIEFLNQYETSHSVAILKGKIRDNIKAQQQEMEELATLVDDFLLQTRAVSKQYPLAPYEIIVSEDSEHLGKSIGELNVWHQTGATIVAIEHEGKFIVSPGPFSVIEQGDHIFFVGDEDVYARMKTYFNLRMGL

BusR W159A [10] = molecular target: T2, BusR W159A; assay: SPR; no c-di-AMP; EMSA: 100 mM KPi pH 6.5, 20 mM KCl, 30 min 20 C, 20 nM DNA, gel at 8 C; SPR: 100 mM NaPi pH 6.5, 20 mM KCl, 200 mM NaCl, 3 mM EDTA, 0.05% P20; BusR concentrations as tetramer; conditions: protein: recombinant; tags: His6-MBP removed with PreScission protease; chain copies: 4; blunt
BusR wt [11] = molecular target: T3, BusR wt; assay: EMSA; 10 uM c-di-AMP, 100 nM BusR; EMSA: 100 mM KPi pH 6.5, 20 mM KCl, 30 min 20 C, 20 nM DNA, gel at 8 C; SPR: 100 mM NaPi pH 6.5, 20 mM KCl, 200 mM NaCl, 3 mM EDTA, 0.05% P20; BusR concentrations as tetramer; conditions: protein: recombinant; tags: His6-MBP removed with PreScission protease; chain copies: 4; label: 5'-6-FAM on strand 1; blunt
BusR wt [12] = molecular target: T3, BusR wt; assay: cryo-EM; c-di-AMP; 7.1 A; EMSA: 100 mM KPi pH 6.5, 20 mM KCl, 30 min 20 C, 20 nM DNA, gel at 8 C; SPR: 100 mM NaPi pH 6.5, 20 mM KCl, 200 mM NaCl, 3 mM EDTA, 0.05% P20; BusR concentrations as tetramer; conditions: protein: recombinant; tags: His6-MBP removed with PreScission protease; chain copies: 4; blunt

His6-RCK_C domain of S. agalactiae BusR (Leu135 to end) (domain or fragment)
stoichiometry N [1]: 2
stoichiometry N [2]: 2

selenomethionine substituted full-length BusR from Streptococcus agalactiae (natural protein)
stoichiometry N [3]: 4

BusR from Streptococcus agalactiae (full length) (natural protein)
stoichiometry N [4]: 4
stoichiometry N [5]: 4
stoichiometry N [6]: 4

RCK_C domain of S. agalactiae BusR (Leu135 to end), no His6-tag (domain or fragment)
stoichiometry N [7]: 2

Nc1ncnc2c1ncn2[C@@H]1O[C@@H]2COP(=O)(O)O[C@H]3[C@@H](O)[C@H](n4cnc5c(N)ncnc54)O[C@@H]3COP(=O)(O)O[C@H]2[C@H]1O [c-di-AMP]
Kd (BusR): 112 ± 7 nM

B1: pAB1 (SPR) (dsDNA)
DNA 1: ATAAAGTGACGTTAAAGTATCGTAAAAGGGTAGTCACTTTTTTACT
DNA 2: AGTAAAAAAGTGACTACCCTTTTACGATACTTTAACGTCACTTTAT
Kd (BusR W159A [8]): 34 ± 8 nM
Kd (BusR wt [9]): 5.1 ± 0.4 nM
Kd (BusR W159A [10]): 11 ± 2 nM

B2: pAB1 0BS (dsDNA)
DNA 1: ATAAAGTATGGTTAAAGTATCGTAAAAGGGTACATACTTTTTTACT
DNA 2: AGTAAAAAAGTATGTACCCTTTTACGATACTTTAACCATACTTTAT
binding result (BusR wt [11]): no binding

B3: pAB1 1BS-A (dsDNA)
DNA 1: B2 DNA 1 with C33G, A34T, T35C
DNA 2: B2 DNA 2 with A12G, T13A, G14C
binding result (BusR wt [11]): no binding

B4: pAB1 1BS-B (dsDNA)
DNA 1: B2 DNA 1 with A8G, T9A, G10C
DNA 2: B2 DNA 2 with C37G, A38T, T39C
binding result (BusR wt [11]): no binding

B5: pAB1 +5bp (dsDNA)
DNA 1: ATAAAGTGACGTTAAAGTATCGTCGATTAAAAGGGTAGTCACTTTTTTACT
DNA 2: AGTAAAAAAGTGACTACCCTTTTAATCGACGATACTTTAACGTCACTTTAT
binding result (BusR wt [11]): no binding

B6: pAB1 -10bp (dsDNA)
DNA 1: ATAAAGTGACGTTAAAAGGGTAGTCACTTTTTTACT
DNA 2: AGTAAAAAAGTGACTACCCTTTTAACGTCACTTTAT
binding result (BusR wt [11]): no binding

B7: pAB1_EM (dsDNA)
DNA 1: CGGTAAAGTGACGTTAAAGTATCGTAAAAGGGTAGTCACTTTTCGG
DNA 2: CCGAAAAGTGACTACCCTTTTACGATACTTTAACGTCACTTTACCG
binding result (BusR wt [12]): binds
